The values below are quoted from earlier work in article PMC3600088.

For this data set, the target named is Protective antigen (PA) (Bacillus anthracis) (UniProt P13423).

Some results are limits rather than exact numbers.

As for CMG2 (from UniProt P58335), the Kd is greater than 0.17 nM.

As usually defined, the Kd is the concentration at which binding is half-saturated.
